Results on 2 molecules are retold here after publication PMC11145796, “Environmental activity-based protein profiling for function-driven enzyme discovery from natural communities” (Environmental Microbiome, 2024).

Series [1] addresses T1, putative esterase / UPF0227 protein ExploCarb_3811S_S4_483_length_13114_cov_941_5 (Sulfurihydrogenibium sp., UniProt A0A2J6WYH8).
T1 construct: gene C0178_06060
T1 sequence (A0A2J6WYH8 1-191): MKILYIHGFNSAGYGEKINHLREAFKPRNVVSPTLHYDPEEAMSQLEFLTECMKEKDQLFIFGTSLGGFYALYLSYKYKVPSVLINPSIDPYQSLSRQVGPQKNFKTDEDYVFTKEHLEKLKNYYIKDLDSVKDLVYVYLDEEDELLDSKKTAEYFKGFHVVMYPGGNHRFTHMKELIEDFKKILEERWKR

Substrate in series [2]: CCCCCCCC(=O)Oc1ccc([N+](=O)[O-])cc1
The series can be described thus: pNP-ester hydrolysis kinetics. Format: biochemical, Sulfurihydrogenibium sp. Conditions: pH 8.0, 70 °C, substrate up to 0.7 mM.

Substrate in series [3]: CC(=O)Oc1ccc([N+](=O)[O-])cc1
In words: pNP-ester hydrolysis kinetics. As to conditions: pH 8.0, 70 °C, substrate up to 0.7 mM. It counts as biochemical, Sulfurihydrogenibium sp.

Substrate in series [4]: CCCC(=O)Oc1ccc([N+](=O)[O-])cc1
The series can be described thus: pNP-ester hydrolysis kinetics. As to conditions: pH 8.0, 70 °C, substrate up to 0.7 mM. It counts as biochemical, Sulfurihydrogenibium sp.

Turning to `CCOP(=O)(OCC)Oc1ccc([N+](=O)[O-])cc1` [paraoxon], in series [1], the “competition with FP-alkyne labelling of purified esterase (pre-incubation)” value is reported as “could be strongly diminished by pre-incubation with the generic serine esterase inhibitor paraoxon”.

B1: putative esterase / UPF0227 protein ExploCarb_3811S_S4_483_length_13114_cov_941_5 (Sulfurihydrogenibium sp.) (protein)
chain: T1 sequence (A0A2J6WYH8 1-191)
notes: 191 amino acids; codon-optimized gene in pET-28b(+), expressed in E. coli Rosetta(DE3), purified; motif G63-T64-S65-L66-G67
As to B1, the figures for the Km in series [2], in series [3] and in series [4] were 0.16 mM, 0.12 mM and 0.18 mM, respectively.
